Laboratory results as given in IntAct's records for PubMed 29128334.

B1: Serine/threonine-protein kinase PINK1, mitochondrial (Homo sapiens), Q9BXM7 (parent)
chain: MAVRQALGRGLQLGRALLLRFTGKPGRAYGLGRPGPAAGCVRGERPGWAAGPGAEPRRVGLGLPNRLRFFRQSVAGLAARLQRQFVVRAWGCAGPCGRAVFLAFGLGLGLIEEKQAESRRAVSACQEIQAIFTQKSKPGPDPLDTRRLQGFRLEEYLIGQSIGKGCSAAVYEATMPTLPQNLEVTKSTGLLPGRGPGTSAPGEGQERAPGAPAFPLAIKMMWNISAGSSSEAILNTMSQELVPASRVALAGEYGAVTYRKSKRGPKQLAPHPNIIRVLRAFTSSVPLLPGALVDYPDVLPSRLHPEGLGHGRTLFLVMKNYPCTLRQYLCVNTPSPRLAAMMLLQLLEGVDHLVQQGIAHRDLKSDNILVELDPDGCPWLVIADFGCCLADESIGLQLPFSSWYVDRGGNGCLMAPEVSTARPGPRAVIDYSKADAWAVGAIAYEIFGLVNPFYGQGKAHLESRSYQEAQLPALPESVPPDVRQLVRALLQREASKRPSARVAANVLHLSLWGEHILALKNLKLDKMVGWLLQQSAATLLANRLTEKCCVETKMKMLFLANLECETLCQAALLLCSWRAAL
partner: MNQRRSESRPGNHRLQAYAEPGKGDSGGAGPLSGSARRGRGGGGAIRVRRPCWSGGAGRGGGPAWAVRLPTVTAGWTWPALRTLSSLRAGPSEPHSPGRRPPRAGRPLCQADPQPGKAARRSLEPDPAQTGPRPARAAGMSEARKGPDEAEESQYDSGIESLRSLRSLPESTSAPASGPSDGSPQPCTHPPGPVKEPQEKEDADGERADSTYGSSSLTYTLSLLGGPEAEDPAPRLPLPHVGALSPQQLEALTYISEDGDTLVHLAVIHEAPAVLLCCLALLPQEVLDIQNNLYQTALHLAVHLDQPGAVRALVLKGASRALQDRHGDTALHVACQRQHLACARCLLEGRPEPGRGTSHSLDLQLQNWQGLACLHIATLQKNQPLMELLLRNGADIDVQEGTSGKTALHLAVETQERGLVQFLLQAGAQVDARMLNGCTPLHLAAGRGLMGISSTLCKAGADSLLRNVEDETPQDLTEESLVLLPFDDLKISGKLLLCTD
B2: Dihydrolipoyl dehydrogenase, mitochondrial (Homo sapiens), P09622 (parent)
chain: MQSWSRVYCSLAKRGHFNRISHGLQGLSAVPLRTYADQPIDADVTVIGSGPGGYVAAIKAAQLGFKTVCIEKNETLGGTCLNVGCIPSKALLNNSHYYHMAHGKDFASRGIEMSEVRLNLDKMMEQKSTAVKALTGGIAHLFKQNKVVHVNGYGKITGKNQVTATKADGGTQVIDTKNILIATGSEVTPFPGITIDEDTIVSSTGALSLKKVPEKMVVIGAGVIGVELGSVWQRLGADVTAVEFLGHVGGVGIDMEISKNFQRILQKQGFKFKLNTKVTGATKKSDGKIDVSIEAASGGKAEVITCDVLLVCIGRRPFTKNLGLEELGIELDPRGRIPVNTRFQTKIPNIYAIGDVVAGPMLAHKAEDEGIICVEGMAGGAVHIDYNCVPSVIYTHPEVAWVGKSEEQLKEEGIEYKVGKFPFAANSRAKTNADTDGMVKILGQKSTDRVLGAHILGPGAGEMVNEAALALEYGASCEDIARVCHAHPTLSEAFREANLAASFGKSINF
partner: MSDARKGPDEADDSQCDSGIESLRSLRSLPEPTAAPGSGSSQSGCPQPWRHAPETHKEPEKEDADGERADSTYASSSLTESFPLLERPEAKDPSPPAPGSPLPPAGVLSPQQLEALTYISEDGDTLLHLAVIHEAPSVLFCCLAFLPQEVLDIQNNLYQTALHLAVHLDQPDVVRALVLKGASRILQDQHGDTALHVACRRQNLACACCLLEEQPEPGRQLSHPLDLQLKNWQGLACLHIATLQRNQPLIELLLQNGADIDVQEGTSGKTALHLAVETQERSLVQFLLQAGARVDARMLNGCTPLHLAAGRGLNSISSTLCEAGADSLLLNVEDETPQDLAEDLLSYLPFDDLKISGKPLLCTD
B3: Peroxiredoxin-5, mitochondrial (Homo sapiens), P30044 (parent)
chain: MGLAGVCALRRSAGYILVGGAGGQSAAAAARRYSEGEWASGGVRSFSRAAAAMAPIKVGDAIPAVEVFEGEPGNKVNLAELFKGKKGVLFGVPGAFTPGCSKTHLPGFVEQAEALKAKGVQVVACLSVNDAFVTGEWGRAHKAEGKVRLLADPTGAFGKETDLLLDDSLVSIFGNRRLKRFSMVVQDGIVKALNVEPDGTGLTCSLAPNIISQL

Variants of: B1
Settings: with ikbe_human NFKBIE

Row | Variant | effect of a mutation on the interaction
1 | MAVRQALGRGLQLGRALLLRFTGKPGRAYGLGRPGPAAGCVRGERPGWAAGPGAEPRRVGLGLPNRLRFFRQSVAGLAARLQRQFVVRAWGCAGPCGRAVFLAFGLGLGLIEEKQAESRRAVSACQEIQAIFTQKSKPGPDPLDTRRLQGFRLEEYLIGQSIGKGCSPAVYEATMPTLPQNLEVTKSTGLLPGRGPGTSAPGEGQERAPGAPAFPLAIKMMWNISAGSSSEAILNTMSQELVPASRVALAGEYGAVTYRKSKRGPKQLAPHPNIIRVLRAFTSSVPLLPGALVDYPDVLPSRLHPEGLGHGRTLFLVMKNYPCTLRQYLCVNTPSPRLAAMMLLQLLEGVDHLVQQGIAHRDLKSDNILVELDPDGCPWLVIADFGCCLADESIGLQLPFSSWYVDRGGNGCLMAPEVSTARPGPRAVIDYSKADAWAVGAIAYEIFGLVNPFYGQGKAHLESRSYQEAQLPALPESVPPDVRQLVRALLQREASKRPSARVAANVLHLSLWGEHILALKNLKLDKMVGWLLQQSAATLLANRLTEKCCVETKMKMLFLANLECETLCQAALLLCSWRAAL [A168P] | disrupting interaction strength

Variants of: B2
Settings: with ikbe_mouse Nfkbie

Row | Variant | effect of a mutation on the interaction
2 | MQSWSRVYCSLAKRGHFNRISHGLQGLSAVPLRTYADQPIDADVTVIGSGPGGYVAAIKAAQLGFKTVCIEKNETLGGTCLNVGCIPSKALLNNSHYYHMAHGKDFASRGIEMSEVRLNLDKMMEQKSTAVKALTGGIAHLFKQNKVVHVNGYGKITGKNQVTATKADGGTQVIDTKNILIATGSEVTPFPGITIDEDTIVSSTGALSLKKVPEKMVVIGAGVIGVELGSVWQRLGADVTAVEFLGHVGGVGIDMEISKNFQRILQKQGFKFKLNTKVTGATKKSDGKIDVSIEAASGGKAEVITCDVLLVCIGRRPFTKNLGLEELGIELDPRGRIPVNTRFQTKIPNIYAIGDVVAGPMLAHKAEDEGIICVEGMAGGAVHIDYNCVPSVIYTHPEVAWVGKSEEQLKEEGIEYKVGKFPFAANSRAKTNADTDGMVKILGQKSTDRVLGAHILGPGAGEMVNEAALALEYGASCEDIARVCHAHPTLAEAFREANLAASFGKSINF [S491A] | disrupting interaction strength

Variants of: B3
Settings: with sodc_human SOD1, P00441
Sequence of sodc_human SOD1, P00441 (P00441 whole entry): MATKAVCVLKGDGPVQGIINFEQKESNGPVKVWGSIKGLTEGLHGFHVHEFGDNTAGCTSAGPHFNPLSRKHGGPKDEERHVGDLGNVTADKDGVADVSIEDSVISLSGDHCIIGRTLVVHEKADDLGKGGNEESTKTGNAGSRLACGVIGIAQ

Row | Variant | effect of a mutation on the interaction
3 | MGLAGVCALRRSAGYILVGGAGGQSAAAAARRYSEGEWASGGVRSFSRAAAAMAPIKVGDAIPAVEVFEGEPGNKVNLAKLFKGKKGVLFGVPGAFTPGCSKTHLPGFVEQAEALKAKGVQVVACLSVNDAFVTGEWGRAHKAEGKVRLLADPTGAFGKETDLLLDDSLVSIFGNRRLKRFSMVVQDGIVKALNVEPDGTGLTCSLAPNIISQL [E80K] | with no effect
4 | MGLAGVCALRRSAGYILVGGAGGQSAAAAARRYSEGEWASGGVRSFSRAAAAMAPIKVGDAIPAVEVFEGEPGNKVNLAELFRGKKGVLFGVPGAFTPGCSKTHLPGFVEQAEALKAKGVQVVACLSVNDAFVTGEWGRAHKAEGKVRLLADPTGAFGKETDLLLDDSLVSIFGNRRLKRFSMVVQDGIVKALNVEPDGTGLTCSLAPNIISQL [K83R] | with no effect
5 | MGLAGVCALRRSAGYILVGGAGGQSAAAAARRYSEGEWASGGVRSFSRAAAAMAPIKVGDAIPAVEVFEGEPGNKVNLAELFKGRKGVLFGVPGAFTPGCSKTHLPGFVEQAEALKAKGVQVVACLSVNDAFVTGEWGRAHKAEGKVRLLADPTGAFGKETDLLLDDSLVSIFGNRRLKRFSMVVQDGIVKALNVEPDGTGLTCSLAPNIISQL [K85R] | disrupting interaction strength
